Results reported in paper PMC9976917.

Columns and labels:
Assay in all cases: fluorescence polarization
[1] = biological target: T1, ZNF410 FL DEAED-to-AAAAA (Homo sapiens, UniProt Q86VK4 1-478, D143A;E144A;E146A;D147A)
T1 sequence: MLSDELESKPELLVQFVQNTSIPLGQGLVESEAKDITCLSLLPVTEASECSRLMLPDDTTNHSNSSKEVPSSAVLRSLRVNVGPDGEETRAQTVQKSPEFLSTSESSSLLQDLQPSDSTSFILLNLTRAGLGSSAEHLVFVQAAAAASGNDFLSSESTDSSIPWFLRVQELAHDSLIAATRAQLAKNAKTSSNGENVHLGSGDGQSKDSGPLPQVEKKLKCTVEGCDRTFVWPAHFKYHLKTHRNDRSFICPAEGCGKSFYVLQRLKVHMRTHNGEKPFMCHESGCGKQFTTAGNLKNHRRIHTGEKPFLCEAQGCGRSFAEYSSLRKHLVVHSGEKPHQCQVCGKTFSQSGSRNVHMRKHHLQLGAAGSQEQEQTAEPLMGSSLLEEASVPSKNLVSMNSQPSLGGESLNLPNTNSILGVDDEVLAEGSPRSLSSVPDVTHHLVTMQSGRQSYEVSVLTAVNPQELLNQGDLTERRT

[2] = biological target: T2, ZNF410 NT (Homo sapiens, UniProt Q86VK4 1-216)
T2 sequence: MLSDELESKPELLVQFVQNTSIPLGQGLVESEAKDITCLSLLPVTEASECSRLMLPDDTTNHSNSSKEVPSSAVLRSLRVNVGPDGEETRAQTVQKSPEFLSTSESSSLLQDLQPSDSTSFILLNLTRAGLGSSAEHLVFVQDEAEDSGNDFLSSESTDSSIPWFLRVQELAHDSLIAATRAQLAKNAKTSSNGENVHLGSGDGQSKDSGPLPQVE

[3] = biological target: T3, ZNF410 FL seven S/T-to-D/E (Homo sapiens, UniProt Q86VK4 1-478, S148D;S154D;S155D;S157D;T158E;S160D;S161D)
T3 sequence: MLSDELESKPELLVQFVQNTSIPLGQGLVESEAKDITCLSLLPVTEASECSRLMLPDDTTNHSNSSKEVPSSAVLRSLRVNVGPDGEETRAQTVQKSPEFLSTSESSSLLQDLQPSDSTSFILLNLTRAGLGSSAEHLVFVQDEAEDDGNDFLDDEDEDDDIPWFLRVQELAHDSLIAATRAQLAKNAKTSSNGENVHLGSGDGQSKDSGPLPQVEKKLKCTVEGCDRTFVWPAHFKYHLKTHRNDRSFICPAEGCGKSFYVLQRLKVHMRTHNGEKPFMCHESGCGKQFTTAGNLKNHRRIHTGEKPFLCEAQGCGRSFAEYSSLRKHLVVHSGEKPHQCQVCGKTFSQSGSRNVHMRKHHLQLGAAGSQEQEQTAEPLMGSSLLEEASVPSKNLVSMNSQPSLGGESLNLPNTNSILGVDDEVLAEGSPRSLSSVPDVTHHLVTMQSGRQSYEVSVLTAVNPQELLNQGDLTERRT

B1: FAM 17-bp ZNF410 motif duplex (dsDNA)
DNA 1: CACATCCCATAATAATG
DNA 2: CATTATTATGGGATGTG
[1]
  binding signal: > 4 fold higher affinity than wild-type FL
[2]
  binding result: no binding
[3]
  binding signal: > 6 fold lower affinity than wild-type FL
